In the supplement of paper PMC9732359:
± gives the uncertainty stated by the source.

Experiment: protein stability index of a GFP-peptide fusion (yeast GPS) (PSI 1-4); higher = more stable; sorted into four equal gates, so the index is relative within each strain
Method in brief: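 Each library plasmid carries Cherry plus GFP with a tiled 17-residue yeast protein peptide fused downstream, and the pooled library was carried in yeast. Mid-log cultures in leucine-free medium were sorted into four equal gates by GFP/Cherry ratio. Reads from Illumina sequencing of PCR-amplified plasmids from each gate were assigned to strains by barcodes. Per peptide, the protein stability index was computed as the summed products of gate read frequency and gate number.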

Sequence	protein stability index (doa10∆)	protein stability index (pdr5∆)	protein stability index (san1∆)	protein stability index (ubr1∆)
MSLRHFGHLMHYGNEHI [RPN1]	1.47 ± 0.04	1.38 ± 0.039	1.4 ± 0.066	1.33 ± 0.032
ELTKSLSIAFENGDYAA [RPN12]	3.17 ± 0.16	3 ± 0.11	3.24 ± 0.073	3.24 ± 0.12
KLLAKELEEQESESERK [SMC2]	2.71 ± 0.13	3.23 ± 0.089	2.46 ± 0.16	3.14 ± 0.1
QGVTCLHLAVGKKWFEV [NAS6]	2.76 ± 0.23			3.14 ± 0.14
SRTLILSILNEIKKVTQ [SIN4]	3.05 ± 0.12	2.56 ± 0.15	2.27 ± 0.11	2.82 ± 0.084
LLPTNNGQPLNQNFSLT [GRR1]	3.06 ± 0.058	2.95 ± 0.045	2.81 ± 0.045	3.02 ± 0.047
TGLKLYSRITLIIDDPS [RPP1]	2.22 ± 0.065	2.8 ± 0.077	2.17 ± 0.062	2.75 ± 0.086
KKFDISNDNLDLISEIL [MED1]	2.77 ± 0.067	2.89 ± 0.058	2.84 ± 0.061	3 ± 0.049
PSHEKLKESYSQKHNGR [CDC53]	3.23 ± 0.13	3.13 ± 0.071	2.94 ± 0.047	3.04 ± 0.08
KEFDETIFNLPKNKLVP [FAS1]	3.5 ± 0.17	3.39 ± 0.18	3.59 ± 0.085	3.07 ± 0.2
INAKNIAFASNYGIVEL [RRP43]	2.04 ± 0.053	1.49 ± 0.056	1.4 ± 0.14	1.84 ± 0.051
LGKRSILAAAHRDAYSG [PRE2]	2.93 ± 0.2	3.26 ± 0.2	2.33 ± 0.18	2.85 ± 0.083
LFNKPPSTNAQNVNVPS [YOR098C/NUP1]	3.15 ± 0.056	3.05 ± 0.051	3.03 ± 0.046	3.12 ± 0.04
RVGVVSILEAGDSDILT [RPL30]	3.1 ± 0.057	2.97 ± 0.074	2.98 ± 0.07	3.03 ± 0.058
QIIVTDGKLEPSTRSNF [YJL039C/NUP192]	2.38 ± 0.099	3.13 ± 0.13	2.88 ± 0.11	3.32 ± 0.18
GINPNTFRIFHNHDTGC [YDL088C/ASM4]	1.83 ± 0.073	1.85 ± 0.082	1.4 ± 0.15	1.44 ± 0.047
SPMGAQPSYNSAIIENA [GAL11]	2.88 ± 0.074	2.96 ± 0.071	2.5 ± 0.1	2.73 ± 0.045
LGLCCLLDVKLAIDNMY [YCG1]	1.52 ± 0.045	1.51 ± 0.04	1.78 ± 0.067	1.88 ± 0.044
QQKANLLSSSNFEATKK [COR1]	2.27 ± 0.069	2.5 ± 0.075	2.1 ± 0.086	1.91 ± 0.05
EKIWFAISKENLCGDIS [SIR3]	2.39 ± 0.064	2.44 ± 0.078	2.27 ± 0.11	1.91 ± 0.078
VNRLLSVIPLKGRYAPE [RRP4]	1.85 ± 0.17	1.68 ± 0.087	2.33 ± 0.15	1.86 ± 0.055
QQNIKFRRDFLLREYDI [YJL039C/NUP192]	2.5 ± 0.058	2.57 ± 0.055	2.9 ± 0.045	2.63 ± 0.037
LASRNKWDDLNEQLTLL [RPN5]	2.99 ± 0.09	3.4 ± 0.072	3.26 ± 0.056	3.12 ± 0.047
INLNVDDDILIIRPILG [SRB4]	3.42 ± 0.15	3.07 ± 0.1	3.21 ± 0.059	3.21 ± 0.057
RYENNDDDERVEYNLFT [BRN1]	3.17 ± 0.1	3.27 ± 0.087	3.07 ± 0.064	3.04 ± 0.043
PLFIVEDDESLGHKELK [RPB2]	3.34 ± 0.15	3.34 ± 0.15	2.77 ± 0.14	1.8 ± 0.097
GTCFGGSKLEDMSKILV [RET1]	3.04 ± 0.074	3.3 ± 0.096	3.36 ± 0.065	3.45 ± 0.056
